Results: paper PMC7674511 (2020)

B1: BAG6 LIR1 peptide (residues 124-143) [modified: FITC label (position not stated), told for the anisotropy assay; FITC label (position not stated), told for the anisotropy assay] [not stated] / LC3B-I [not stated] (parent complex)
chain 1: VHDRNANSYVMVGTFNLPSD
chain 2: not shown
B2: FLAG-BAG6(1-266aa) [not stated] / GFP-LC3B [not stated] (parent complex)
chain 1: MEPNDSTSTAVEEPDSLEVLVKTLDSQTRTFIVGAQMNVKEFKEHIAASVSIPSEKQRLIYQGRVLQDDKKLQEYNVGGKVIHLVERAPPQTHLPSGASSGTGSASATHGGGSPPGTRGPGASVHDRNANSYVMVGTFNLPSDGSAVDVHINMEQAPIQSEPRVRLVMAQHMIRDIQTLLSRMECRGGPQPQHSQPPPQPPAVTPEPVALSSQTSEPVESEAPPREPMEAEEVEERAPAQNPELTPGPAPAGPTPAPETNAPNHPS
chain 2: not shown

Variants of: B1
Assay: fluorescence anisotropy; FITC-labeled peptide 1 μM; read at the highest LC3B-I concentration plotted (about 48 μM); read off a plot

Variant	response
chain 1 Y9A, chain 1 V12A	~0.001

Variants of: B2
Assay: co-immunoprecipitation (FLAG pulldown with anti-FLAG beads, immunoblot); HEK293FT cells transfected with GFP-LC3B and FLAG-BAG6(1-266aa) constructs

Variant	ratio to parent
chain 1 Y132A, chain 1 V133A, chain 1 M134A, chain 1 V135A	0.23
chain 1 Y132A, chain 1 V135A	0.79
